{"source": "paper PMC4041440", "about": "“Structural and biophysical characterization of Staphylococcus aureus SaMazF shows conservation of functional dynamics” (Nucleic Acids Research, 2014)", "target": "the molecule itself", "assay": "SEC; analytical gel filtration, Superdex HR75 10/30, 20 mM Tris-HCl pH 8.0, 250 mM NaCl, SaMazF at 3.3 mg/ml; apparent molecular weight about 31 500 Da"}
{"protein": "Staphylococcus aureus MazF toxin (SaMazF), N-terminally His-tagged (enzyme, SaMazF, the MazF toxin (ribonuclease) of the Staphylococcus aureus mazEF module; wild type; 13C15N-labelled for the NMR experiments; The models number the tag's last residues Gln-1, Asp0, Pro1, so the tag's Pro may stand at position 1 of SaMazF in place of Met1; The measured mass is 14 794 Da, for the chain with the tag and without the N-terminal methionine; also called SaMazF2 (the dimer); …) IRRGDVYLADLSPVQGSEQGGVRPVVIIQNDTGNKYSPTVIVAAITGRINKAKIPTHVEIEKKKYKLDKDSVILLEQIRTLDKKRLKEKLTYLSDDKMKEVDNALMISLGLNAVAHQKN", "values": [{"measurement": "stoichiometry N", "value": 2}]}
